Source: the supplement of paper PMC12764529
± gives the half width of the 95% confidence interval.

Columns and labels:
[1] = folding stability dG unfold from trypsin proteolysis; higher = more stable
Procedure, shortened: (§1)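 Only designs with AlphaFold2 dimer inter-PAE above 15 were retained; each was a mini-protein under 80 residues with no cysteine, in a PA-tagged cDNA display construct. After digestion with trypsin and chymotrypsin and sequencing, K50 was inferred by Bayesian fitting of counts, and unfolding free energy was derived per protease or combined against a sequence-predicted unfolded-state K50 and a shared folded-state K50.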

[2] = folding stability dG unfold (combined trypsin and chymotrypsin); higher = more stable
Procedure, shortened: as §1

[3] = folding stability dG unfold from chymotrypsin proteolysis; higher = more stable
Procedure, shortened: as §1

Row | Sequence | folding stability dG unfold [1] | folding stability dG unfold [2] | folding stability dG unfold [3]
1 | EKYIVKIKITVRRKVETETLPDGSKKTRYETKTLEIEIEVSLEELKKLLEELNLPEDEITSVEIEVYPEEES [r1_351_TrROS_Hall] | 3.3 ± 0.24 kcal/mol | 4.31 ± 0.73 kcal/mol | 4.58 ± 0.32 kcal/mol
2 | EMTEEELREKLPELSPEELEELARKLAEELGIEEVEEVEVVSVKPDGTIEVKVKLKDGEELTIEIPLEELLS [r1_435_TrROS_Hall] | 2.8 ± 0.26 kcal/mol | 2.47 ± 0.22 kcal/mol | 2.07 ± 0.15 kcal/mol
3 | ERDLIVIAGDDLTPEQLRELLEELGFRPEDAEIFREGDALLIVLPDAVILVVRPPPLPVLSEDDPELLEEAS [r1_57_TrMRF] | 3.22 ± 0.16 kcal/mol | 3.19 ± 0.2 kcal/mol | 3.28 ± 0.23 kcal/mol
4 | ETIYLSSSNPEEVIKALKEAASKGKTVVVEANPEFFKEFIAQGFKVEKILKIEPIPGGDGYRAEIKISPGGS [r1_173_TrMRF] | 1.64 ± 0.082 kcal/mol | 1.97 ± 0.14 kcal/mol | 1.95 ± 0.063 kcal/mol
5 | FKFKITELSFNPEWGYIHFNVKVEGPDGQPQTFPIMIRIRIPPPPPPPPPPMRADPDGKVRNPDDGKEHDAS [r1_270_TrROS] | 3.3 ± 0.1 kcal/mol | 4.26 ± 0.63 kcal/mol | 4.9 ± 0.27 kcal/mol
6 | GEVVERLKLPDLELVEVRTTTEGDTTFVYVKLKRPDSYYVVKLTVTPATGEVTVTEEKKVSPNETLEEVLAS [r1_383_JUSTAS] | 1.66 ± 0.12 kcal/mol | 2.36 ± 0.21 kcal/mol | 2.76 ± 0.12 kcal/mol
7 | GFEVTAEIEVYEDPESGAKVVKVTIPVKNGDPEVLEKAAKELAKKLFGPGAKFDPKIDPETGRVEVTGVLAS [r1_273_TrMRF] | 0.942 ± 0.046 kcal/mol | 1.38 ± 0.13 kcal/mol | 1.57 ± 0.07 kcal/mol
8 | GKAEVVRVEYDPETGALRVVLRREGADVVLEVDPETGVARVYFPADPRVLEFEFDTLEEAVDAAVALLEAGS [r1_177_TrMRF] | 3.59 ± 0.17 kcal/mol | 4.36 ± 0.14 kcal/mol | 4.66 ± 0.14 kcal/mol
9 | GLTVTLDGNSLTVTADAGDKTVTVTAPVFHPEKGLVTVVTVTATREDGALVLHTESRTIRLPPLPPLHPDLS [r1_100_TrMRF] | 2.21 ± 0.29 kcal/mol | 3.59 ± 0.43 kcal/mol | 4.18 ± 0.57 kcal/mol
10 | GLVDEDGKEVFPEVPLVIELDVPENLPDGKKLSPEEVEKLVKGLAEKLKKEYNVKKVEAERKGNKVLILVGS [r1_369_TrMRF] | 0.688 ± 0.058 kcal/mol | 0.706 ± 0.1 kcal/mol | 0.519 ± 0.15 kcal/mol
11 | GMNLKETTVTIPLKVKSEEEAKKKAEEIANELKKKYPDIIEIKIEIKEIDKETGIVIITIKFKAKNSSVLLS [r1_52_JUSTAS] | 2.18 ± 0.33 kcal/mol | 2 ± 0.55 kcal/mol | 1.27 ± 0.14 kcal/mol
12 | GSAGVMFGSREDIEALAAALGPDVAPTDVTYDPSGYYYYTIPLPDGTPTSLTIPPDKYSPEEVAALARRLTS [r1_279_JUSTAS] | -0.346 ± 0.56 kcal/mol | 0.481 ± 0.14 kcal/mol | 0.703 ± 0.15 kcal/mol
13 | GSMTIPVVLPPGVRLPLSELWAIAKQYGGKLTATVYDPETGTSTSVTFPGGQLGDSTMAPGERTVNVTVVGS [r1_238_JUSTAS] | 0.527 ± 0.031 kcal/mol | 0.759 ± 0.076 kcal/mol | 0.825 ± 0.09 kcal/mol
14 | GSNAVEVTLEVEVTITDPKTPDNKTTTVTIPLTVKLPPSVTSLEELEALARERAEAVAAELGGTVVTVTPVS [r1_300_JUSTAS] | 2.61 ± 0.098 kcal/mol | 2.49 ± 0.089 kcal/mol | 2.42 ± 0.067 kcal/mol
15 | GSVTIELVVPKGVDIPLALLAGIASTGKGKVTARISNPLSGKEIEVTFPGGGLGEAGVTEGINVVRLTVYGS [r1_238_TrMRF] | 0.869 ± 0.1 kcal/mol | 1.2 ± 0.19 kcal/mol | 1.29 ± 0.11 kcal/mol
16 | GYTITSEVEEFEDPNSDAKYTKVTIPVVDGDPEVAREAAEEIAKERFGPGATLDIKYDPETGTVTATFTVAS [r1_273_JUSTAS] | 0.511 ± 0.026 kcal/mol | 0.563 ± 0.081 kcal/mol | 0.379 ± 0.1 kcal/mol
17 | ITIRIPPNGNIRIEMIDPNGKWWTYTFPVKDPEENLQRLKDIIRDFFPGFEDVDVKITEVEDGWVTITVPLS [r1_389_TrROS] | 4.05 ± 0.17 kcal/mol | 4.76 ± 0.21 kcal/mol | 4.96 ± 0.23 kcal/mol
18 | KIEIVEIKKENGKITIKVKNPIPNAKLIIYLFNPKGEIVSAKTHPGPEVELEIEVPENESFSVLVKLFPPKS [r1_382_TrMRF] | 3.35 ± 0.12 kcal/mol | 3.99 ± 0.14 kcal/mol | 4.24 ± 0.083 kcal/mol

Row | Sequence | folding stability dG unfold [1] | folding stability dG unfold [2] | folding stability dG unfold [3]
19 | KIKIEPGETVRIKVKVKLPDGEEKEIEIELSLEELEKKLGRPLTPEEILNLIKEEAEKKGFEVEEVEIEKES [r1_338_TrROS_Hall] | 0.391 ± 0.12 kcal/mol | 0.961 ± 0.36 kcal/mol | 1.38 ± 0.12 kcal/mol
20 | KIPITIEEDPEDKMYELRVPDGMPIQIQRSKDGYRVSIWNPDNGKPREIPITKKDLKDLLSNPGFWIEIYKS [r1_18_TrROS] | 1.64 ± 0.062 kcal/mol | 1.77 ± 0.11 kcal/mol | 1.56 ± 0.078 kcal/mol
21 | KIVILEPGEEAELPGVKVIPVDGLRIREVEVNGKKILVIEMSEEEIENGNEEELEKLRELAEELGADEVILS [r1_438_TrROS_Hall] | 1.13 ± 0.072 kcal/mol | 1.14 ± 0.26 kcal/mol | 1.27 ± 0.062 kcal/mol
22 | KKIHIMFNNPQHVRRIAKKLGPNVKPDDVKKNPNGYYYFEIDLPNGRPIDIHIPSENMPAEDIVDYALEMLS [r1_279_TrROS] | 0.88 ± 0.02 kcal/mol | 0.894 ± 0.058 kcal/mol | 0.86 ± 0.089 kcal/mol
23 | KKKILIFITGDNPELAERIRKELEELGYDVEVKVVTTPEEMEKAIEEAEKTDIVIVIHLPPALPLSPELAFS [r1_497_TrMRF] | 2.58 ± 0.13 kcal/mol | 1.9 ± 0.19 kcal/mol | 0.709 ± 0.12 kcal/mol
24 | KMEIKIEVEKVKDEETGEEYIEVKIVVKKENVEEALEKVKKILEEEFNYEIVDVKVEKKDDYVVITVKIRLS [r1_337_TrROS_Hall] | 3.15 ± 0.22 kcal/mol | 2.89 ± 0.53 kcal/mol | 2.21 ± 0.41 kcal/mol
25 | KSKEEQKEQQEEQQKPPPVEIKVEVEVVKSPNGNPYFQFNVEYYDPGDGEPIGEITISVPPDDVDELADEFS [r1_415_TrROS] | 1.97 ± 0.4 kcal/mol | 2.46 ± 0.71 kcal/mol | 2.63 ± 0.25 kcal/mol
26 | KTISSDELLELLGVSKSELKKLPLEAIVDEVKKALPPGVAVSAKAEPIPENPSYTIVVELKNGEPVTITLDS [r1_340_TrMRF] | 1.06 ± 0.041 kcal/mol | 0.964 ± 0.12 kcal/mol | 1 ± 0.026 kcal/mol
27 | KTLVIHAKTPEEILAAIKEAIKEGKTVVIEMSPELIEALKEAGFEIEKIEEVEEIDGKKIYRVVIEVKPKES [r1_173_TrROS_Hall] | 1.66 ± 0.084 kcal/mol | 2.87 ± 0.2 kcal/mol | 3.36 ± 0.058 kcal/mol
28 | KTVMIMFKNPEQILNQLREARDDGKTVSIMFPDEWINELKNLGFKIDKITDVQPMPGNDSYMVEIKIKPKDS [r1_173_TrROS] | 1.29 ± 0.12 kcal/mol | 1.95 ± 0.2 kcal/mol | 2.31 ± 0.12 kcal/mol
29 | MEELEKLPGIKVEPIREEDGRLYLRVTFTDEVAKALGKPPVTVLIEVEPGEELELSPELRELLRKLGIEVVS [r1_256_TrROS_Hall] | 2.6 ± 0.061 kcal/mol | 3.86 ± 0.12 kcal/mol | 4.34 ± 0.11 kcal/mol
30 | MEIIKKLKIPDYEIVSVKTKKIGNKVIVVVVLKKEKEYYVIVAEINPETKEIKIISIKKLKENETLEDFISS [r1_383_TrMRF] | 3.2 ± 0.26 kcal/mol | 3.76 ± 0.32 kcal/mol | 3.95 ± 0.11 kcal/mol
31 | MEIKKIELKVEEKDGKLVLTVKIEVFDKNGKLVKKVEIKLEVPKELKEGQSLEELPLSEELRKLVKELLEKS [r1_354_TrROS_Hall] | 3.11 ± 0.26 kcal/mol | 3.54 ± 0.7 kcal/mol | 3.79 ± 0.34 kcal/mol
32 | MEKVLILAKIKLKGPDGEEAEIDFAVEISPEEATPELLKKVREEAEEIAEALKEKGYEVELEVEVVKLGEES [r1_221_TrMRF] | 3.62 ± 0.48 kcal/mol | 3.25 ± 0.65 kcal/mol | 2.88 ± 0.24 kcal/mol
33 | MEPPPVVVLEIEIEVPAEDEELRNMTAEELAARLAEELEALPGLKVVSVEVVEVEERPDGTLRVRIRVTIES [r1_484_TrROS_Hall] | 3.69 ± 0.47 kcal/mol | 3.57 ± 0.79 kcal/mol | 2.32 ± 0.14 kcal/mol
34 | MKETVTVDITVVVEDENGKKHLVRVKVTVEKLPDGTYRVTIEVENLETGKTETIEIEVKGAEFKPGDVIEIS [r1_14_TrROS_Hall] | 3.21 ± 0.15 kcal/mol | 2.87 ± 0.12 kcal/mol | 2.56 ± 0.15 kcal/mol
35 | MKIKEVKVFPLPGENTIVILVTGEFDSFYIPETGKPIPSSAKITLIEVIKVPEDSDEAEVESSLLILPDAES [r1_147_TrMRF] | 1.08 ± 0.067 kcal/mol | 1.4 ± 0.16 kcal/mol | 1.46 ± 0.067 kcal/mol
36 | MKPGETKTLTLTIVDEETGETYTVKVTVTYDEDTGVVTIKAEITYPDGRKFTVTARFNRETGELTEISIEPS [r1_144_TrROS_Hall] | 3.96 ± 0.087 kcal/mol | 4.32 ± 0.098 kcal/mol | 4.44 ± 0.075 kcal/mol
